Results on 3 molecules are retold here after publication PMC8938434, “Atomic resolution dynamics of cohesive interactions in phase-separated Nup98 FG domains” (Nature Communications, 2022).

In data set [1] the target is wild-type Tetrahymena thermophila MacNup98A (Mac98A) FG domain (Tetrahymena thermophila). The data set can be described thus: partition of fluorescent probes into FG particles (confocal laser scanning microscopy); FG particles mixed with permeation probes (2 μM Alexa488-labelled NTF2 and 10 μM mCherry in assay buffer, 15 μl + 15 μl); 20 mM NaPi pH 6.8, 150 mM NaCl, 5 mM DTT; 21 °C; partition coefficient = signal inside FG phase: signal in buffer.

Data set [2] concerns the molecule itself. The data set can be described thus: MAS NMR, 1H-13C cross-polarization of the FG phase; FG phase from u-[13C,15N]-labelled protein, 36 °C, 20 kHz MAS; cross-polarization against direct excitation.
Another data set addresses T1, prf.GLFG_(52 × 12).
T1 construct: engineered from the Tetrahymena thermophila MacNup98A FG domain; plasmid pSNG064; Isotope-labelled (15N, 13C) for NMR; also called perfect repeat; source: E. coli, inclusion bodies, Ni(II) chelate column, tag cut off with bdSENP1 protease, lyophilized; not shown: His14-ZZ-scSUMO, N-terminal, cleaved
T1 chain: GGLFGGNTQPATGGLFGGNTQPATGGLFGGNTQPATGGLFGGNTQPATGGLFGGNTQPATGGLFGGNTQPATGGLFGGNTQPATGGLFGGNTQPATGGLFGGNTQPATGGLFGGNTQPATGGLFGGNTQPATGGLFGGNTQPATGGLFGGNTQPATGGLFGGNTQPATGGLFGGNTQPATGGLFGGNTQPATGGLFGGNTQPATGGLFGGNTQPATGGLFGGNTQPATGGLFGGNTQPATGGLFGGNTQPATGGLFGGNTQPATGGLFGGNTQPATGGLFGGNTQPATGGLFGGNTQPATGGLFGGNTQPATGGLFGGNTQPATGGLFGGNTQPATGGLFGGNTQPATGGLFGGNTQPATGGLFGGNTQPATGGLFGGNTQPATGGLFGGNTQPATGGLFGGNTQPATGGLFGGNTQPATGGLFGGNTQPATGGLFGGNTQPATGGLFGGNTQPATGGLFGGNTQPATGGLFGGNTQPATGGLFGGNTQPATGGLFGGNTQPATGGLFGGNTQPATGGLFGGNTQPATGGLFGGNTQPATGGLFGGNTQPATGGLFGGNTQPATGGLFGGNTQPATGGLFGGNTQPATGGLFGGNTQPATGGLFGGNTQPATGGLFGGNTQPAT
The data set can be described thus: partition of Atto488-coupled FG domains into FG particles (confocal laser scanning microscopy); 20 μM unlabelled prf.GLFG_(52 × 12) premixed with 0.5 μM Atto488-labelled species (GAFG: 3 μM); 20 mM NaPi pH 6.8, 150 mM NaCl, 5 mM DTT; 21 °C; apparent partition coefficient = Atto488 signal IN: OUT of the FG particles. The settings on record: both partners purified.

Turning to “nuclear transport receptor NTF2 (labelled with Alexa Fluor 488) (from UniProt P61970 1-127) (natural protein)”, in data set [1], the partition coefficient came out at 2000.

B1: Pro-free prf.GLFG_(52 × 12) (other)
chain: GGLFGGATNSQTGGLFGGATNSQTGGLFGGATNSQTGGLFGGATNSQTGGLFGGATNSQTGGLFGGATNSQTGGLFGGATNSQTGGLFGGATNSQTGGLFGGATNSQTGGLFGGATNSQTGGLFGGATNSQTGGLFGGATNSQTGGLFGGATNSQTGGLFGGATNSQTGGLFGGATNSQTGGLFGGATNSQTGGLFGGATNSQTGGLFGGATNSQTGGLFGGATNSQTGGLFGGATNSQTGGLFGGATNSQTGGLFGGATNSQTGGLFGGATNSQTGGLFGGATNSQTGGLFGGATNSQTGGLFGGATNSQTGGLFGGATNSQTGGLFGGATNSQTGGLFGGATNSQTGGLFGGATNSQTGGLFGGATNSQTGGLFGGATNSQTGGLFGGATNSQTGGLFGGATNSQTGGLFGGATNSQTGGLFGGATNSQTGGLFGGATNSQTGGLFGGATNSQTGGLFGGATNSQTGGLFGGATNSQTGGLFGGATNSQTGGLFGGATNSQTGGLFGGATNSQTGGLFGGATNSQTGGLFGGATNSQTGGLFGGATNSQTGGLFGGATNSQTGGLFGGATNSQTGGLFGGATNSQTGGLFGGATNSQTGGLFGGATNSQTGGLFGGATNSQT
notes: also called thioflavin-T-positive, proline-free variant of prf.GLFG_(52 × 12)
As to B1, the binding result in data set [2] was “binds”.

B2: Atto488-coupled GLLG//L_(52 × 12) (other)
chain: GSGLLGNTGLAPAGGLLGNTQLQQGGGLLGQPQLTQGGGLLGQTGLTTGGGLLGGATLTAPGGLLGGGGLNPTGGLLGGNNLQQTGGLLGQGTLQTGGGLLGAPQLNQGGGLLGGGTLTTGGGLLGANTLTGGGGLLGGPSLPTTAGLLGSNNLTTGGGLLGQPALTNNGGLLGGQTLNQASGLLGANNLPPTNGLLGNNNLPQTAGLLGGATLTGNTGLLGGANLTGGGGLLGNNTLNPTGGLLGATNLAGGGGLLGGGALTGGGGLLGGGNLQTGGGLLGTANLTTAGGLLGGGNLQPQNGLLGNNNLPATGGLLGQTNLAAPQGLLGGTNLNAASGLLGQKPLSANGVLTKPNEKNLCYAISNGTDFCIFELALTQRKLVKAGQLKPGAQAGGLLGQPALNTQGGLLGGGGLATTPGLLGGAQLNTTGGLLGGQNLQAGGGLLGAPNLAAATGLLGAGNLNTQGGLLGAKPLATGGGLLGQPALTQAGGLLGNTALPAGGGLLGGATLTPGGGLLGGNTLATGGGLLGGNTLGATGGLLGGQQLNNQGGLLGNTNLNTGGGLLGGATLTTGGGLLGGSTLATGGGLLGGASLPAAGGLLGGAALQQNSGLLGGATLGQTGGLLGGATLQQGGGLLGQTALNPGGGLLGAANLTTQPGLLGGNNLAATTSC
modifications: Atto488 (coupled)
In the case of B2, the partition coefficient with prf.GLFG_(52 × 12) came to 110.
